Results on four molecules are retold here after patent US20260053904A1 (BIOATLA, published 2026).

For test [1], the target named is T1, human EpCAM expressed on cells (CHO, Colo205, 293) (human, UniProt P16422 24-314).
T1 construct: whole, on cells; also called CHO cells expressing human EpCAM; Colo205 cells expressing human EpCAM
T1 sequence (looked up): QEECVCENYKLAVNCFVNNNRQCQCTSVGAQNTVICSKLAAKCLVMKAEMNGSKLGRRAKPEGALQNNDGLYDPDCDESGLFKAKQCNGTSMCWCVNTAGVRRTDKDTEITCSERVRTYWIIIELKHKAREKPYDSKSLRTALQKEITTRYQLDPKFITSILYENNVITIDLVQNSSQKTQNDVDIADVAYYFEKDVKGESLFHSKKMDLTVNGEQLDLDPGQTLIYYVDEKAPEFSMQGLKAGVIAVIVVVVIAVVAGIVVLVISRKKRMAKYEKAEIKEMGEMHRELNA
The experiment in a line: FACS of MMAE conjugates on 293 cells expressing human EpCAM, pH 7.4. On the procedure:
(§1) A similar FACS analysis was also carried out using 293 cells expressing human EpCAM. […] The EC50 values for binding to the 293 cells expressing human EpCAM by the conjugated humanized conditionally active anti-EpCAM antibodies are summarized in Table 17.

Test [2] deals with T2, cyno EpCAM (recombinant, ELISA antigen) (cynomolgus monkey).
T2 construct: extracellular domain; also called cynomolgus EpCAM extracellular domain
Put plainly: ELISA of MMAE conjugates, cyno EpCAM, pH 6.0. On the procedure: (§2) A similar ELISA analysis was also carried out using cyno EpCAM to measure the binding affinities of the conjugated humanized conditionally active anti-EpCAM antibodies. […] The EC50 values for binding to the cyno EpCAM by the conjugated humanized conditionally active anti-EpCAM antibodies are summarized in Table 13.
(§3) The ELISA assay was performed using the following protocol: [0388] 1) Coat ELISA plates with 100 μL of 0.5 μg/mL (06_20_17 and 06_28_17 Experiments) or 1 μg/mL (07_06_17 and 07_11_17 Experiments) recombinant EpCAM antigen in carbonate-bicarbonate coating buffer [0389] 2) Cover plates with sealing film and incubate overnight at 4° C. [0390] 3) Decant plates and tap out residual liquid on a stack of paper towels [0391] […] 5) Add 200 μL of various pH incubation buffers to the wells according to the sample map.
A general note: ELISA stands for enzyme-linked immunosorbent assay.

The target of test [3] is T1, human EpCAM expressed on cells (CHO, …). The experiment in a line: FACS of MMAE conjugates on Colo205 cells expressing human EpCAM, pH 7.4. On the procedure:
(§4) Binding activities of the conjugated humanized conditionally active anti-EpCAM antibodies (with MMAE) to Colo205 cells expressing human EpCAM was measured by FACS at two different pH: 6.0 and 7.4. […] The EC50 values for binding to the Colo205 cells expressing human EpCAM by the conjugated humanized conditionally active anti-EpCAM antibodies are summarized in Table 16.

For test [4] the target is unchanged. The experiment in a line: FACS of MMAE conjugates on 293 cells expressing human EpCAM, pH 6.0. On the procedure:
as §1

For test [5], the target named is T3, cyno EpCAM expressed on 293 cells (cynomolgus monkey).
T3 construct: whole, on cells; also called 293 cells expressing cyno EpCAM
Put plainly: FACS of MMAE conjugates on 293 cells expressing cyno EpCAM, pH 7.4. As to the method: (§5) A similar FACS analysis was also carried out using 293 cells expressing cyno EpCAM. […] The EC50 values for binding to the 293 cells expressing cyno EpCAM by the conjugated humanized conditionally active anti-EpCAM antibodies are summarized in Table 18.

Test [6] deals with T1, human EpCAM expressed on cells (CHO, …). Put plainly: FACS of MMAE conjugates on Colo205 cells expressing human EpCAM, pH 6.0. As to the method: as §4
Test [7] concerns the target T3, cyno EpCAM expressed on 293 cells. Put plainly: FACS of MMAE conjugates on 293 cells expressing cyno EpCAM, pH 6.0. On the procedure: as §5
Test [8] addresses T2, cyno EpCAM (recombinant, ELISA antigen). Put plainly: ELISA of MMAE conjugates, cyno EpCAM, pH 7.4. On the procedure: as §2, §3
In test [9] the target is T4, recombinant human EpCAM extracellular domain (human, UniProt P16422 24-265).
T4 construct: extracellular domain; Plate-coated antigen of the ELISAs; also called human EpCAM ECD; recombinant EpCAM antigen
T4 sequence (looked up): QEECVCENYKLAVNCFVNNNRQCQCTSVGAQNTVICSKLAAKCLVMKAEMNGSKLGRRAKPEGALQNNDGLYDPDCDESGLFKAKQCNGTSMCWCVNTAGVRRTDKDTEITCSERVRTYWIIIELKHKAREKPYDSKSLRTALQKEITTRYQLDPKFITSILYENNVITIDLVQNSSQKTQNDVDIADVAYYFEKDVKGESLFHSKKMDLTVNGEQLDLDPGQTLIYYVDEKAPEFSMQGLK
The experiment in a line: ELISA of MMAE conjugates, human EpCAM, pH 6.0. On the procedure: (§6) The humanized conditionally active anti-EpCAM antibodies were conjugated to MMAE to create antibody drug conjugates. Binding activities of the conjugated humanized conditionally active anti-EpCAM antibodies to human EpCAM were measured by ELISA at pH 6.0 and pH 7.4 at different antibody concentrations. […] The EC50 values for binding to the human EpCAM by the conjugated humanized conditionally active anti-EpCAM antibodies are summarized in Table 12.
as §3

For test [10], the target named is T4, recombinant human EpCAM extracellular …. Put plainly: ELISA with pH titration, human EpCAM. On the procedure:
(§7) Binding activities of conjugated humanized conditionally active anti-EpCAM antibodies to human EpCAM were measured by ELISA with pH titration. […] The ratios of binding activities to human EpCAM of the conjugated humanized conditionally active anti-EpCAM antibodies at pH 6.0 and pH 7.4, as well as their pH inflection points are summarized in Table 14.
as §3

For test [11], the target named is T1, human EpCAM expressed on cells (CHO, …). Put plainly: cell-based or functional assay.
Test [12] deals with T2, cyno EpCAM (recombinant, ELISA antigen). The experiment in a line: ELISA with pH titration, cyno EpCAM. As to the method: (§8) Binding activities of the conjugated humanized conditionally active anti-EpCAM antibodies to cyno EpCAM were also measured by ELISA with pH titration. […] The ratios of binding activities at pH 6.0 and pH 7.4 to the cyno EpCAM by the conjugated humanized conditionally active anti-EpCAM antibodies, as well as their pH inflection points are summarized in Table 15.
as §3

For test [13] the target is unchanged. Put plainly: ELISA with pH titration, cyno EpCAM; ratio of binding activities at pH 6.0 and pH 7.4. On the procedure: as §8, §3
Test [14] addresses T4, recombinant human EpCAM extracellular …. The experiment in a line: ELISA of MMAE conjugates, human EpCAM, pH 7.4. As to the method:
as §6, §3

Test [15] shares this target. The experiment in a line: ELISA with pH titration, human EpCAM; ratio of binding activities at pH 6.0 and pH 7.4. On the procedure:
as §7, §3

T3 sequence (Q1WER1 24-314): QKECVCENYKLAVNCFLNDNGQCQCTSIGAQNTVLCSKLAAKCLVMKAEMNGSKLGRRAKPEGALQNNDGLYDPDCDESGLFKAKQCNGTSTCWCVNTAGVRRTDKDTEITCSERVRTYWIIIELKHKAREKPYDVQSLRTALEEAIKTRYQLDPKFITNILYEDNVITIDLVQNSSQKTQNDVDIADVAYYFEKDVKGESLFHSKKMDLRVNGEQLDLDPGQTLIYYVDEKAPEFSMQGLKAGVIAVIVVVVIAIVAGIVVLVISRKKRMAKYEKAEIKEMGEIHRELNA
T2 sequence (Q1WER1 24-265): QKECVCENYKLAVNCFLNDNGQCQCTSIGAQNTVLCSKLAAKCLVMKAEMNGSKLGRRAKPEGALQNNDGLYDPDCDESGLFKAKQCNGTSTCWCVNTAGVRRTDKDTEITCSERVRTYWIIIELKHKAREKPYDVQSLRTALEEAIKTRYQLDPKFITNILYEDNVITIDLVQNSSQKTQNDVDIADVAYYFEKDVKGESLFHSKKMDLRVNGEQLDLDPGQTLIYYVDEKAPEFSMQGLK

B1: BA-105-01-01 7376-vcMMAE (antibody, V domains shown)
VH: QVQLQQSGAELAKPGASVKVSCKASGYTFTSYWMHWVKQRPGQGLEWIGYIRPSTGYTEYNQKFKDKATLTADKSSSTAYMQLSSLTFEDSAVYYCGRGDNWVGFANWGQGTLVTVSA
VL: QIVLTQSPAIMSASLGEEIALTCSASSSISYMHWYQQKSGTSPKLLIYSTSNLASGVPSRFSGSGSGTFYSLTISSVEAEDAADYFCHQWSTYHTFGSGTKLEIK
modifications: antibody conjugated to vcMMAE; chain and residues of attachment not stated
What is called EC50 is the concentration that produces a half-maximal response. For the molecule B1, the EC50 in test [1] is 0.112 µg/mL; in test [2], 0.0311 µg/mL; in [3], 0.375 µg/mL; in test [4], 0.129 µg/mL; in [5] it was 1.74 µg/mL; in test [6], 0.301 µg/mL. Besides, the EC50 in [7] amounted to 1.36 µg/mL; in [8], 0.0234 µg/mL; in test [9], 0.024 µg/mL; in test [14], 0.0147 µg/mL. The results for the pH inflection point in test [10] and in [12] were 6.71 pH and 5.07 pH, respectively. For the same molecule, the “IC50 for the in vitro killing of Colo205 cells, pH6.0” value in test [11] was 12.9 ng/mL. The “IC50 for the in vitro killing of Colo205 cells, pH7.4” value in test [11] amounted to 16.8 ng/mL. Moreover, the “ratio (pH7.4/pH6.0) of the IC50 for the in vitro killing of Colo205 cells” value in test [11] came to 1.3. The “ratio (pH 6.0/7.4)” value in test [13] was 0.93.

B2: BA-105.4-01-02 8316-vcMMAE (antibody, V domains shown)
VH: EVQLVQSGAEVKKPGESLRISCKGSGYTFTSYWMHWIRQSPSRGLEWLGYIRPSTGYTEYNQKFKDRVTISADKSISTAYLQWSSLKASDTAMYYCGRGDNWVGFANWGQGTLVTVSS
VL: EIVLTQSPDFQSVTPKEKVTITCSASSSISYMHWYQQKPGKAPKLLIYSTSNLASGVPDRFSGSGSGTDFTLKISRVEAEDVGVYYCHQWSTYETFGQGTKVEIK
modifications: antibody conjugated to vcMMAE; chain and residues of attachment not stated
Take B2: the EC50 in test [1] came to 0.0849 µg/mL; in [2], 0.0877 µg/mL; in [3] it was 0.153 µg/mL; in test [4] it was 0.0637 µg/mL; in [5] it was 17.7 µg/mL; in test [6], 0.15 µg/mL. For the same molecule, the EC50 in test [7] came to 4.72 µg/mL; in test [8], 0.257 µg/mL; in [9], 0.0392 µg/mL; in test [14], 0.127 µg/mL. Also, the “ratio (pH 6.0/7.4)” value in test [15] was 1.75; in test [13], 2.75. Besides, the pH inflection point in [12] is 6.3 pH.

B3: BA-105.4-01-05 8317-vcMMAE (antibody, V domains shown)
VH: EVQLVQSGAEVKKPGATVKISCKVSGYTFTSYWMHWIRQPPGKGLEWIGYIRPSTGYTEYNQKFKDRFTISRDNSKNTLYLQMNSLRAEDTAVYYCGRGDNWVGFANWGQGTLVTVSS
VL: EIVLTQSPDFQSVTPKEKVTITCSASSSISYMHWYQQKPGKAPKLLIYSTSNLASGVPDRFSGSGSGTDFTLKISRVEAEDVGVYYCHQWSTYETFGQGTKVEIK
modifications: antibody conjugated to vcMMAE; chain and residues of attachment not stated
In the case of B3, the EC50 worked out at 0.109 µg/mL in test [1]; 0.0659 µg/mL in [2]; 0.203 µg/mL in test [3]; 0.0772 µg/mL in test [4]; 43.4 µg/mL in test [5]; 0.188 µg/mL in [6]. Besides, the EC50 in test [7] was 5.54 µg/mL; in test [8] it was 0.3 µg/mL; in test [9], 0.0306 µg/mL; in test [14], 0.0703 µg/mL. Further, the entries for the “ratio (pH 6.0/7.4)” value in test [15] and in [13] were 2.39 and 2.76, respectively. Also, the values for the pH inflection point in test [10] and in test [12] were 6.98 pH and 6.28 pH, respectively.

B4: BA-105.4-02-01 8318-vcMMAE (antibody, V domains shown)
VH: EVQLVQSGAEVKKPGATVKISCKVSGYTFTSYWMHWVRQAPGQGLEWMGYIRPSTGYTEYNQKFKDRFTISRDNSKNTLYLQMNSLRAEDTAVYYCGRGDNWVGFANWGQGTLVTVSS
VL: EIVMTQSPATLSVSPGERATLSCSASSSISYMHWYQQKPGKAPKLLIYSTSNLASGVPSRFSGSGSGTEFTLTISSLQPDDFATYYCHQWSTYETFGQGTKVEIK
modifications: antibody conjugated to vcMMAE; chain and residues of attachment not stated
For B4, the EC50 in [1] came to 0.335 µg/mL; in [2], 0.0809 µg/mL; in test [3], 0.693 µg/mL; in test [4], 0.206 µg/mL; in test [5], 61.1 µg/mL; in test [6], 0.464 µg/mL. Further, the EC50 in [7] turned out to be 7.96 µg/mL; in test [8], 0.249 µg/mL; in test [9] it was 0.0324 µg/mL; in test [14], 0.22 µg/mL. The “ratio (pH 6.0/7.4)” value in test [15] was 6.74; in test [13], 3.61. Also, the pH inflection point is 6.83 pH in [10] and 6.16 pH in test [12].
